Key:
[1] = target: T1, TrkH-TrkA complex (TrkHA) (Vibrio parahaemolyticus, UniProt Q87KD2); experiment: single-channel patch clamp, inside-out patches of E. coli giant spheroplasts; type: biochemical; conditions: 150 mM KCl, 10 mM HEPES pH 7.4, same wild-type value also cited to earlier work
T1 construct: gene VP3045; full-length TrkH with C-terminal TEV site and His10; full-length TrkA with N-terminal GST cut by TEV; each made in E. coli BL21(DE3) and mixed; for patch clamp both co-expressed from modified pET vectors in E. coli giant spheroplasts; TrkH dimer with TrkA tetramer; with Trk system potassium uptake protein TrkH
T1 sequence (Q87KD2 1-458): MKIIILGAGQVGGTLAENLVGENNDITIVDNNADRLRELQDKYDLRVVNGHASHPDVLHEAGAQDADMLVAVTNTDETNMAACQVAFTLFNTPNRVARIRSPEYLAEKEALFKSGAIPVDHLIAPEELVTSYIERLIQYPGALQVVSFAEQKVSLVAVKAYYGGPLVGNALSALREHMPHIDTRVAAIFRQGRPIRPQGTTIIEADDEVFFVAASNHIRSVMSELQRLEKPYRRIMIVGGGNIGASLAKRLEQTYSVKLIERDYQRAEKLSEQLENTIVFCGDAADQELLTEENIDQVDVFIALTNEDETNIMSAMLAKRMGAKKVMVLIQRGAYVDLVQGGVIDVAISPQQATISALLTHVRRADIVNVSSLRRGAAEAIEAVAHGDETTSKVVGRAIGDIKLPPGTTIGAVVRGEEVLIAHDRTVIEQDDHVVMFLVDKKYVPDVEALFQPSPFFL
T1 sequence (Q87TN7 1-485 partner): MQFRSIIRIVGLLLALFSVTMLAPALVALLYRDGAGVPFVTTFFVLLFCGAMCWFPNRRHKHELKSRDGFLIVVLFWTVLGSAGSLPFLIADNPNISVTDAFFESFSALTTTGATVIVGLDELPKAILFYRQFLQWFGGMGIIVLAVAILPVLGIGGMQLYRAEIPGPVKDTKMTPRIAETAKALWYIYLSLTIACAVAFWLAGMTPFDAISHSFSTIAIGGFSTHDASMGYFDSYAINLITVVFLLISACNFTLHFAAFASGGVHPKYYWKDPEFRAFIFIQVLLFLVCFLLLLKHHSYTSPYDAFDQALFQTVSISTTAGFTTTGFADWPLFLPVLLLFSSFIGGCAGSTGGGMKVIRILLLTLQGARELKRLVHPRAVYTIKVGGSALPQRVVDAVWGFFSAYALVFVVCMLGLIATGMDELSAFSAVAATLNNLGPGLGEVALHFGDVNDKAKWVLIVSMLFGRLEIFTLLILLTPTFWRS

[2] = target: T1, TrkH-TrkA complex (TrkHA); experiment: X-ray crystallography, […] A; type: binding; conditions: 10 mM ADP; pH 7.2; 20 °C; site: N2 domain of TrkA only
[3] = target: T1, TrkH-TrkA complex (TrkHA); experiment: X-ray crystallography, […] A; type: binding; conditions: 10 mM ATPγS; MgCl2 50 mM; pH 7.3; 20 °C; sites: N1 and N2 domains of TrkA
[4] = target: TrkH from Vibrio parahaemolyticus, wild type (Vibrio parahaemolyticus) (UniProt Q87TN7)
[5] = target: TrkA from Vibrio parahaemolyticus, wild type (Vibrio parahaemolyticus); experiment: crystal structure; TrkH-TrkA complex crystallised in the presence of 10 mM ATPγS (TrkHA-ATPγS), 3.85 Å; 20 °C, MgCl2 50 mM, NH4H2PO4 50 mM, HEPES pH 7.3, PEG400 20%
[6] = target: TrkA from Vibrio parahaemolyticus, wild type (Vibrio parahaemolyticus); experiment: crystal structure; TrkH-TrkA complex crystallised in the presence of 10 mM ADP (TrkHA-ADP), 3.53 Å; 20 °C, magnesium acetate 100 mM, HEPES pH 7.2, PEG400 26%, 2-propanol 10%
[7] = target: TrkA from Vibrio parahaemolyticus, wild type (Vibrio parahaemolyticus); experiment: cryo-EM structure; TrkH-TrkA complex frozen on grids in the presence of 10 mM ATP (TrkHA-ATP), overall 3.0 Å; 150 mM KCl, 20 mM HEPES pH 7.5, 5 mM β-mercaptoethanol, 3.5 mM DM
[8] = target: the molecule itself; experiment: crystal structure; TrkH-TrkA complex crystallised in the presence of 10 mM ADP (TrkHA-ADP), 3.53 Å; 20 °C, magnesium acetate 100 mM, HEPES pH 7.2, PEG400 26%, 2-propanol 10%

## Nc1ncnc2c1ncn2[C@@H]1O[C@H](COP(=O)(O)OP(=O)(O)O)[C@@H](O)[C@H]1O [ADP]
[1]; 5 mM ADP, closes channel
  Popen at 5 mM: 0.02 ± 0.002
[2]
  X-ray crystallography, 3.53 A: each TrkA has a prominent non-protein density in the N2 domain in which we modeled

## Nc1ncnc2c1ncn2[C@@H]1O[C@H](COP(=O)(O)OP(=O)(O)OP(=O)(O)O)[C@@H](O)[C@H]1O [ATP]
[1]; 5 mM ATP, activator
  Popen at 5 mM: 0.87 ± 0.003

## Nc1ncnc2c1ncn2[C@@H]1O[C@H](COP(=O)(O)OP(=O)(O)OP(O)(O)=S)[C@@H](O)[C@H]1O [ATPγS]
[3]
  X-ray crystallography, 3.85 A: ATPγS is found in both the N1 and N2 domains

## TrkA from Vibrio parahaemolyticus, wild type (natural protein)
[4]
  single-channel open probability (Popen) of TrkHA wt, inside-out patches of E. coli spheroplasts, in ADP: 0.02
  single-channel open probability (Popen) of TrkHA wt, inside-out patches of E. coli spheroplasts, in ATP: 0.87
  single-channel open probability (Popen) of TrkHA wt, inside-out patches of E. coli spheroplasts, no ligand: 0.17
[5]
  stoichiometry N: 4
[6]
  stoichiometry N: 4
[7]
  stoichiometry N: 2

B1: TrkH from Vibrio parahaemolyticus, wild type (natural protein, UniProt Q87TN7 1-485, looked up)
chain: T1 sequence (Q87TN7 1-485 partner)
notes: TrkH, Vibrio parahaemolyticus, full-length gene in a modified pET vector; TEV protease site followed by a 10-polyhistidine tag at the C terminus; printed residue numbers run to 485; Homodimer in all three structures; also called TrkH (wt)
[8]
  stoichiometry N: 2
